Among the data in patent US20140161800A1 (published 2014) are EC50 values, retold here.

Assay [1] has as its target T1, prostate-specific membrane antigen (PSMA) (human, UniProt Q04609 1-750). Kind of assay: FACS binding; LNCaP cells. (In general: Flow cytometry measures light scatter and fluorescence of single cells or particles in a stream.)
Assay [2] deals with T1, prostate-specific membrane antigen …. Kind of assay: FACS binding; C4-2 cells; apparent EC50.

T1 sequence (Q04609 whole entry): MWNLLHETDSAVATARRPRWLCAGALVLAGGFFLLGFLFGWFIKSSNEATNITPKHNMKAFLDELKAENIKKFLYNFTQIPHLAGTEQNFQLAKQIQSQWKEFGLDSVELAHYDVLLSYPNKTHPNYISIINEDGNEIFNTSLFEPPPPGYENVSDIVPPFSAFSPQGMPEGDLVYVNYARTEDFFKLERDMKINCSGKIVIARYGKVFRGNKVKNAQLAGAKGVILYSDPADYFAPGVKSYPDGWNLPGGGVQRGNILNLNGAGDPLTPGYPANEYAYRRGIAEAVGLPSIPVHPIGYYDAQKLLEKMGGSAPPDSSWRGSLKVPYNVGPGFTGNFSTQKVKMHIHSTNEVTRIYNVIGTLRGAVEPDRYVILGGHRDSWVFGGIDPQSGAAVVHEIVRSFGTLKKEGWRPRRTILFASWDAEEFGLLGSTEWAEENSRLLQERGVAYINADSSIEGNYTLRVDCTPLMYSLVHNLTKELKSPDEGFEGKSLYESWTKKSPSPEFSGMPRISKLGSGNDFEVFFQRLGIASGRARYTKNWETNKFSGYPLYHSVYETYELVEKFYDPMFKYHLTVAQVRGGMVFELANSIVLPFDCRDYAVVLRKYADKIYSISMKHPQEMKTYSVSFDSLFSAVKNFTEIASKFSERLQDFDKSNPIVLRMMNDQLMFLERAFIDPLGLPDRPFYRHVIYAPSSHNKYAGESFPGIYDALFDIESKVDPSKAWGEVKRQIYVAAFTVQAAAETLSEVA

B1: TSC092 chimeric SMIP (murine 107-1A4 VH-VL scFv-human Fc) (Fc fusion)
chain: EIQLQQSGPELVKPGASVKMSCKASGYTFTDYYMHWVKQNNGESLEWIGYFNPYNDYTRYNQNFNGKATLTVDKSSSTAYMQLNSLTSEDSAFYYCARSDGYYDAMDYWGQGTSVTVSSGGGGSGGGGSSGGGGSDVQITQSPSYLAASPGETITINCRASKSISKYLAWYQEKPGKANKLLIHSGSTLQSGIPSRFSGSGSGTDFTLTISSLEPEDFAMYYCQQHIEYPWTFGGGTKLEIKRASSEPKSSDKTHTCPPCPAPEAAGAPSVFLFPPKPKDTLMISRTPEVTCVVVDVSHEDPEVKFNWYVDGVEVHNAKTKPREEQYNSTYRVVSVLTVLHQDWLNGKAYACAVSNKALPAPIEKTISKAKGQPREPQVYTLPPSRDELTKNQVSLTCLVKGFYPSDIAVEWESNGQPENNYKTTPPVLDSDGSFFLYSKLTVDKSRWQQGNVFSCSVMHEALHNHYTQKSLSLSPGK
Broadly, the EC50 is the concentration needed to bring the measured effect to its halfway point. For B1, the EC50 in assay [1] came out at 4 nM.

B2: TSC085 chimeric SMIP (murine 107-1A4 VL-VH scFv-human Fc) (Fc fusion)
chain: DVQITQSPSYLAASPGETITINCRASKSISKYLAWYQEKPGKANKLLIHSGSTLQSGIPSRFSGSGSGTDFTLTISSLEPEDFAMYYCQQHIEYPWTFGGGTKLEIKRAGGGGSGGGGSSGGGGSEIQLQQSGPELVKPGASVKMSCKASGYTFTDYYMHWVKQNNGESLEWIGYFNPYNDYTRYNQNFNGKATLTVDKSSSTAYMQLNSLTSEDSAFYYCARSDGYYDAMDYWGQGTSVTVSSSEPKSSDKTHTCPPCPAPEAAGAPSVFLFPPKPKDTLMISRTPEVTCVVVDVSHEDPEVKFNWYVDGVEVHNAKTKPREEQYNSTYRVVSVLTVLHQDWLNGKAYACAVSNKALPAPIEKTISKAKGQPREPQVYTLPPSRDELTKNQVSLTCLVKGFYPSDIAVEWESNGQPENNYKTTPPVLDSDGSFFLYSKLTVDKSRWQQGNVFSCSVMHEALHNHYTQKSLSLSPGK
B2 showed an EC50 in assay [1] of 4.9 nM.

B3: TSC188 humanized SMIP (107-1A4 VL-VH#1 scFv-Fc) (Fc fusion)
chain: DIQMTQSPSAMSASVGDRVTITCRASKSISKYLAWFQQKPGKVPKLRIHSGSTLQSGVPSRFSGSGSGTEFTLTISSLQPEDFATYYCQQHIEYPWTFGQGTKVEIKRGGGGSGGGGSGGGGSEVQLVQSGAEVKKPGATVKISCKASGYTFTDYYMHWVQQAPGKGLEWMGYFNPYNDYTRYAEKFQGRVTITADTSTDTAYMELSSLRSEDTAVYYCARSDGYYDAMDYWGQGTTVTVSSSEPKSSDKTHTCPPCPAPEAAGAPSVFLFPPKPKDTLMISRTPEVTCVVVDVSHEDPEVKFNWYVDGVEVHNAKTKPREEQYNSTYRVVSVLTVLHQDWLNGKAYACAVSNKALPAPIEKTISKAKGQPREPQVYTLPPSRDELTKNQVSLTCLVKGFYPSDIAVEWESNGQPENNYKTTPPVLDSDGSFFLYSKLTVDKSRWQQGNVFSCSVMHEALHNHYTQKSLSLSPGK
B3: in assay [2], the 50% effective concentration (EC50) came out at 3.2 nM.

B4: TSC189 humanized SMIP (107-1A4 VL-VH#2 scFv-Fc) (Fc fusion)
chain: DIQMTQSPSAMSASVGDRVTITCRASKSISKYLAWFQQKPGKVPKLRIHSGSTLQSGVPSRFSGSGSGTEFTLTISSLQPEDFATYYCQQHIEYPWTFGQGTKVEIKRGGGGSGGGGSGGGGSQVQLVQSGAEVKKPGASVKVSCKASGYTFTDYYMHWVRQAPGQGLEWMGYFNPYNDYTRYAQKFQGRVTMTRDTSISTAYMELSSLRSDDTAVYYCARSDGYYDAMDYWGQGTTVTVSSSEPKSSDKTHTCPPCPAPEAAGAPSVFLFPPKPKDTLMISRTPEVTCVVVDVSHEDPEVKFNWYVDGVEVHNAKTKPREEQYNSTYRVVSVLTVLHQDWLNGKAYACAVSNKALPAPIEKTISKAKGQPREPQVYTLPPSRDELTKNQVSLTCLVKGFYPSDIAVEWESNGQPENNYKTTPPVLDSDGSFFLYSKLTVDKSRWQQGNVFSCSVMHEALHNHYTQKSLSLSPGK
Take B4: the EC50 in assay [2] is 2.1 nM.

B5: 107-1A4 murine monoclonal antibody (antibody, V domains shown)
VH: EIQLQQSGPELVKPGASVKMSCKASGYTFTDYYMHWVKQNNGESLEWIGYFNPYNDYTRYNQNFNGKATLTVDKSSSTAYMQLNSLTSEDSAFYYCARSDGYYDAMDYWGQGTSVTVSS
VL: DVQITQSPSYLAASPGETITINCRASKSISKYLAWYQEKPGKANKLLIHSGSTLQSGIPSRFSGSGSGTDFTLTISSLEPEDFAMYYCQQHIEYPWTFGGGTKLEIKR
B5 showed an EC50 in assay [1] of 5.4 nM.
